{"source": "patent US20240181067A1", "about": "“TARGETED BIFUNCTIONAL DEGRADERS AND METHODS USING SAME” (YALE UNIVERSITY, priority 2021, published 2024)", "target": "streptavidin AF488 (Streptomyces avidinii, UniProt P22629)", "sequence (P22629 25-183)": "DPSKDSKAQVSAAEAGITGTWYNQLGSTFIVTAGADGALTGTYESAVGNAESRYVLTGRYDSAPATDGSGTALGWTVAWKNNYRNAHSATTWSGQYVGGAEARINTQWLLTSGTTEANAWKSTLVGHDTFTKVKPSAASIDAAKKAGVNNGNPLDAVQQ", "assay": "Degradation of a target protein using an LRP1 binding motif", "type": "cell-based", "details": "FIG. 12", "excerpt": "Some studies have been done on other bifunctional molecules comprising an LRP1 binding motif depicted in FIG. 2 and a biotin Target binding motif, wherein these bifunctional molecules also noncovalently bind streptavidin (FIG. 11).", "data": [{"substance": "Ac.Ac.Biotin Angiopep-2: \"the Ac.Ac.Biotin Angiopep-2 mediated degradation of streptavidin AF488\"", "values": [{"measurement": "degradation of streptavidin AF488", "result": "mediated degradation of streptavidin AF488"}]}]}
